Measured values: PMC3581772

Columns and labels:
[1] = target: T1, I59T human lysozyme (human) (UniProt P61626)
T1 sequence: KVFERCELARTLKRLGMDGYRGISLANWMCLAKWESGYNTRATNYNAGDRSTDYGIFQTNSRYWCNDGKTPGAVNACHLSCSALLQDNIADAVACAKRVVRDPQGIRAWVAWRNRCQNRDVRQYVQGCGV

[2] = target: amyloid β peptide Aβ(1–42) (UniProt P05067)
[3] = target: T1, I59T human lysozyme (human); remark: listed apart in the source

I59T lysozyme left soluble at the endpoint (SDS–PAGE of supernatants) [1]: > 90%
suppression of ThT signal at the endpoint of Aβ(1–42) fibril formation, Aβ-to-α2M 10:1 [2]: > 80%
decrease of ThT fluorescence at the endpoint of I59T lysozyme fibril formation, lysozyme-to-α2M 10:1 [3]: > 90%
B1: native α2-macroglobulin (natural protein)
chain: SVSGKPQYMVLVPSLLHTETTEKGCVLLSYLNETVTVSASLESVRGNRSLFTDLEAENDVLHCVAFAVPKSSSNEEVMFLTVQVKGPTQEFKKRTTVMVKNEDSLVFVQTDKSIYKPGQTVKFRVVSMDENFHPLNELIPLVYIQDPKGNRIAQWQSFQLEGGLKQFSFPLSSEPFQGSYKVVVQKKSGGRTEHPFTVEEFVLPKFEVQVTVPKIITILEEEMNVSVCGLYTYGKPVPGHVTVSICRKYSDASDCHGEDSQAFCEKFSGQLNSHGCFYQQVKTKVFQLKRKEYEMKLHTEAQIQEEGTVVELTGRQSSEITRTITKLSFVKVDSHFRQGIPFFGQVRLVDGKGVPIPNKVIFIRGNEANYYSNATTDEHGLVQFSINTTNVMGTSLTVRVNYKDRSPCYGYQWVSEEHEEAHHTAYLVFSPSKSFVHLEPMSHELPCGHTQTVQAHYILNGGTLLGLKKLSFYYLIMAKGGIVRTGTHGLLVKQEDMKGHFSISIPVKSDIAPVARLLIYAVLPTGDVIGDSAKYDVENCLANKVDLSFSPSQSLPASHAHLRVTAAPQSVCALRAVDQSVLLMKPDAELSASSVYNLLPEKDLTGFPGPLNDQDNEDCINRHNVYINGITYTPVSSTNEKDMYSFLEDMGLKAFTNSKIRKPKMCPQLQQYEMHGPEGLRVGFYESDVMGRGHARLVHVEEPHTETVRKYFPETWIWDLVVVNSAGVAEVGVTVPDTITEWKAGAFCLSEDAGLGISSTASLRAFQPFFVELTMPYSVIRGEAFTLKATVLNYLPKCIRVSVQLEASPAFLAVPVEKEQAPHCICANGRQTVSWAVTPKSLGNVNFTVSAEALESQELCGTEVPSVPEHGRKDTVIKPLLVEPEGLEKETTFNSLLCPSGGEVSEELSLKLPPNVVEESARASVSVLGDILGSAMQNTQNLLQMPYGCGEQNMVLFAPNIYVLDYLNETQQLTPEIKSKAIGYLNTGYQRQLNYKHYDGSYSTFGERYGRNQGNTWLTAFVLKTFAQARAYIFIDEAHITQALIWLSQRQKDNGCFRSSGSLLNNAIKGGVEDEVTLSAYITIALLEIPLTVTHPVVRNALFCLESAWKTAQEGDHGSHVYTKALLAYAFALAGNQDKRKEVLKSLNEEAVKKDNSVHWERPQKPKAPVGHFYEPQAPSAEVEMTSYVLLAYLTAQPAPTSEDLTSATNIVKWITKQQNAQGGFSSTQDTVVALHALSKYGAATFTRTGKAAQVTIQSSGTFSSKFQVDNNNRLLLQQVSLPELPGEYSMKVTGEGCVYLQTSLKYNILPEKEEFPFALGVQTLPQTCDEPKAHTSFQISLSVSYTGSRSASNMAIVDVKMVSGFIPLKPTVKMLERSNHVSRTEVSSNHVLIYLDKVSNQTLSLFFTVLQDVPVRDLKPAIVKVYDYYETDEFAIAEYNAPCSKDLGNA
